In IntAct's records for PubMed 16956611:

B1: Histone deacetylase 7 (Mus musculus), Q8C2B3 (parent)
chain: MHSPGAGCPALQPDTPGSQPQPMDLRVGQRPTVEPPPEPALLTLQHPQRLHRHLFLAGLHQQQRSAEPMRLSMDPPMPELQGGQQEQELRQLLNKDKSKRSAVASSVVKQKLAEVILKKQQAALERTVHPSSPSIPYRTLEPLDTEGAARSVLSSFLPPVPSLPTEPPEHFPLRKTVSEPNLKLRYKPKKSLERRKNPLLRKESAPPSLRRRPAETLGDSSPSSSSTPASGCSSPNDSEHGPNPALGSEADGDRRTHSTLGPRGPVLGNPHAPLFLHHGLEPEAGGTLPSRLQPILLLDPSVSHAPLWTVPGLGPLPFHFAQPLLTTERLSGSGLHRPLNRTRSEPLPPSATASPLLAPLQPRQDRLKPHVQLIKPAISPPQRPAKPSEKPRLRQIPSAEDLETDGGGVGPMANDGLEHRESGRGPPEGRGSISLQQHQQVPPWEQQHLAGRLSQGSPGDSVLIPLAQVGHRPLSRTQSSPAAPVSLLSPEPTCQTQVLNSSETPATGLVYDSVMLKHQCSCGDNSKHPEHAGRIQSIWSRLQERGLRSQCECLRGRKASLEELQSVHSERHVLLYGTNPLSRLKLDNGKLTGLLAQRTFVMLPCGGVGVDTDTIWNELHSSNAARWAAGSVTDLAFKVASRELKNGFAVVRPPGHHADHSTAMGFCFFNSVAIACRQLQQHGKASKILIVDWDVHHGNGTQQTFYQDPSVLYISLHRHDDGNFFPGSGAVDEVGTGSGEGFNVNVAWAGGLDPPMGDPEYLAAFRIVVMPIAREFAPDLVLVSAGFDAAEGHPAPLGGYHVSAKCFGYMTQQLMNLAGGAVVLALEGGHDLTAICDASEACVAALLGNKVDPLSEESWKQKPNLSAIRSLEAVVRVHRKYWGCMQRLASCPDSWLPRVPGADAEVEAVTALASLSVGILAEDRPSERLVEEEEPMNL

Variants of: B1
Conditions: with 1433e_mouse Ywhae
For S178E;S344E;S479E, the “effect of a mutation on the interaction” value was “disrupting interaction”.

Variants of: B1
Conditions: with 1433e_mouse Ywhae
Remark: another data set of the same source
For S178E;S344E;S479E, the “effect of a mutation on the interaction” value was “disrupting interaction”.

Variants of: B1
Conditions: with mef2a_mouse Mef2a
For S178A;S344A;S479A, the “effect of a mutation on the interaction” value was “disrupting interaction strength”.
